The values below come from publication PMC13379383.

In the data set the target is thrombin (human, UniProt P00734;P00734 328-363;364-622). Put plainly: AuNP aggregation (plasmonic scattering); 16 nM thrombin, 4.59 uM TBA, 0.1 M NaCl, pH 7.4; LoD 0.5 nM (not a Kd).

B1: TBA (thrombin-binding aptamer) (ssDNA)
DNA: AGTCCGTGGTAGGGCAGGTTGGGGTGACT
modifications: 5'-amine C6 linker
For the molecule B1, the binding result is “binds”.
